According to patent WO2002045743A2 (dated 2002):

B1: mAb 15H4 (antibody, V domains shown)
VH: QVQLQQSGAELARPGASVKLSCKASGYTFTRYWMQWVKQKPGQGLEWIGAIYCGDGDTRFTQKFKGKATLTADKSSSTAYMQLSNLASEDSAVYYCVIYGNYYDAMDYWGQGTSVTVSS
VL: DIVMTQAPLSMPVSLGDQASISGRSSQSLVHSNGNTYLHWYLQKPGQSPKLLIHKVSKRFSGVPDRFSGSGSGTDFTLKIRRVEAEDLGVYFCSQNTHVPFTFGGGTK
B2: mAb 2P24 (antibody, V domains shown)
V domain 1: EFQLQQSGAELVRPGPLVTLSCKASGFNIKDYYMNWVKQRPEQGLEWIGRIDPKNGNALYDPKFQDKARITADTSSNTAYLQLNSLTSEATAVYYCSSGWLDYWGQGTSLAVYS
V domain 2: DIVMTQSPASLAVFRGQRATISYRASKSVSTSGYSYMHWNQQKPGQPPRLLIYLVSNLESGVPARFSGSGSGTDFTLNIHPVEEEDAATYYCQHIRELTAFGGGTK

What was measured:
EH1 peptide = assay: peptide EIA, Nunc-Immuno and CovaLab plates
S82 peptide = assay: peptide EIA, Nunc-Immuno and CovaLab plates
S83 peptide = assay: peptide EIA, Nunc-Immuno and CovaLab plates
S52 peptide = assay: peptide EIA, Nunc-Immuno and CovaLab plates
S87 peptide = molecular target: T1, S87 peptide; assay: peptide EIA, Nunc-Immuno and CovaLab plates
T1 construct: Synthetic HVR 1 peptide
T1 peptide: CTGFSKHNNMGSQQKV

S54 peptide = assay: peptide EIA, Nunc-Immuno and CovaLab plates
G3895 peptide = assay: peptide EIA, Nunc-Immuno and CovaLab plates
DH2 peptide = assay: peptide EIA, Nunc-Immuno and CovaLab plates
G4720 peptide = assay: peptide EIA, Nunc-Immuno and CovaLab plates
S66 peptide = assay: peptide EIA, Nunc-Immuno and CovaLab plates
S67 peptide [1] = assay: peptide EIA, Nunc-Immuno and CovaLab plates
US1 peptide = assay: peptide EIA, Nunc-Immuno and CovaLab plates
S85 peptide [2] = assay: peptide EIA, Nunc-Immuno and CovaLab plates
S67 peptide [3] = assay: IAsys biosensor, BSA-HVR1 peptide conjugate
S85 peptide [4] = assay: IAsys biosensor, BSA-HVR1 peptide conjugate
G4309 peptide = assay: peptide EIA, Nunc-Immuno and CovaLab plates
S53 peptide = assay: peptide EIA, Nunc-Immuno and CovaLab plates

Binder | EIA Sample/Cutoff ratio (S/CO) (EH1 peptide) | EIA Sample/Cutoff ratio (S/CO) (S82 peptide) | EIA Sample/Cutoff ratio (S/CO) (S83 peptide) | EIA Sample/Cutoff ratio (S/CO) (S52 peptide) | EIA Sample/Cutoff ratio (S/CO) (S87 peptide) | EIA Sample/Cutoff ratio (S/CO) (S54 peptide) | EIA Sample/Cutoff ratio (S/CO) (G3895 peptide) | EIA Sample/Cutoff ratio (S/CO) (DH2 peptide) | EIA Sample/Cutoff ratio (S/CO) (G4720 peptide) | EIA Sample/Cutoff ratio (S/CO) (S66 peptide) | EIA Sample/Cutoff ratio (S/CO) (S67 peptide [1]) | EIA Sample/Cutoff ratio (S/CO) (US1 peptide) | EIA Sample/Cutoff ratio (S/CO) (S85 peptide [2]) | Kd (S67 peptide [3]) | Kd (S85 peptide [4]) | EIA Sample/Cutoff ratio (S/CO) (G4309 peptide) | EIA Sample/Cutoff ratio (S/CO) (S53 peptide)
B1 | 16.9 S/CO | 3.3 S/CO | 2.3 S/CO | 1.9 S/CO | 8.9 S/CO | 3.9 S/CO | 7.9 S/CO | 12.9 S/CO | 14.2 S/CO | 24.8 S/CO | 25.1 S/CO | 21 S/CO | 24.4 S/CO | 110 nM | 58.5 nM | – | –
B2 | 24.8 S/CO | 16.1 S/CO | 11.5 S/CO | 1.4 S/CO | – | 18.9 S/CO | 25.4 S/CO | 18.6 S/CO | 24 S/CO | 12.7 S/CO | 24.7 S/CO | – | 25.6 S/CO | 18.1 nM | 24.3 nM | 1.1 S/CO | 5.7 S/CO
